# Bridge positions count the residues as written; N and C are the ends. Square brackets hold non-standard residues; d marks the D form. Ends that are not written are not given here. (PEG)4 = polyethylene glycol, 4 units; NMeF = CN[C@@H](Cc1ccccc1)C(=O)O; Orn = NCCC[C@H](N)C(=O)O; Dab = NCC[C@H](N)C(=O)O; Dap = NC[C@H](N)C(=O)O
# B1: KLTCLA-Dpr-YCWLF (peptide)
# peptide: KLTCLA[Dap]YCWLF
# modifications: not fully specified; printed as KLTCLA-Dpr-YCWLF; cysteine pairing not given here
# B2: KLT-Orn-LASY-Glu-WLF-COOH (peptide)
# peptide: KLT[Orn]LASYEWLF-OH
# modifications: N-terminus assumed
# SMILES: CC(C)C[C@H](NC(=O)[C@H](CCCN)NC(=O)[C@@H](NC(=O)[C@H](CC(C)C)NC(=O)[C@@H](N)CCCCN)[C@@H](C)O)C(=O)N[C@@H](C)C(=O)N[C@@H](CO)C(=O)N[C@@H](Cc1ccc(O)cc1)C(=O)N[C@@H](CCC(=O)O)C(=O)N[C@@H](Cc1c[nH]c2ccccc12)C(=O)N[C@@H](CC(C)C)C(=O)N[C@@H](Cc1ccccc1)C(=O)O
# B3: KLTCLASYC-Nal-LF (peptide)
# peptide: KLTCLASYC[Nal]LF
# modifications: not fully specified; printed as KLTCLASYC-Nal-LF; cysteine pairing not given here
# B4: KLT-Orn-LASY-Glu-WLF-CONH2 (peptide)
# peptide: KLT[Orn]LASYEWLF-NH2
# modifications: N-terminus assumed
# SMILES: CC(C)C[C@H](NC(=O)[C@H](CCCN)NC(=O)[C@@H](NC(=O)[C@H](CC(C)C)NC(=O)[C@@H](N)CCCCN)[C@@H](C)O)C(=O)N[C@@H](C)C(=O)N[C@@H](CO)C(=O)N[C@@H](Cc1ccc(O)cc1)C(=O)N[C@@H](CCC(=O)O)C(=O)N[C@@H](Cc1c[nH]c2ccccc12)C(=O)N[C@@H](CC(C)C)C(=O)N[C@@H](Cc1ccccc1)C(N)=O
# B5: Dpr-LTCLASYCWLF (peptide)
# peptide: [Dap]LTCLASYCWLF
# modifications: not fully specified; printed as Dpr-LTCLASYCWLF; cysteine pairing not given here
# Target: human Factor IXa (human, UniProt P00740 47-191; P00740 227-461)
# Experiment: cell-based or functional assay
row,Binder,"EC50 [µM], FXa generation assay [µM]"
1,B1,> 20
2,B2,< 0.5
3,CLASYCWLF,> 20
4,KLTSLASYSWLF,> 15
5,KLTCLASYCWLF (Lys(Me3CI) 1) [Lys(Me3CI)-LTCLASYCWLF],> 1
6,TCLASYCWLF,< 0.5
7,KLTCLAXYCWLF (not fully specified; HSe 7) [KLTCLA-HSe-YCWLF],> 1
8,KGRCLTSHCWLF,> 20
9,KLTCLXSYCWLF (not fully specified; Aib 6) [KLTCL-Aib-SYCWLF],> 20
10,KLTCLASYCWLF-{(PEG)4-NH2} (cysteine pairing not given here) [KLTCLASYCWLF-(PEG)4-CONH2],> 1
11,KLTCLASYXWLF (not fully specified; Pen 9) [KLTCLASY-Pen-WLF],> 20
12,KLTCLASYCW,> 10
13,B3,< 0.5
14,KKTCLASYCWLF,> 50
15,KLT[Dap]LASYEWLF (not fully specified; printed as KLT-Dap-LASY-Glu-WLF) [KLT-Dap-LASY-Glu-WLF],< 0.5
16,QLTCLASYCGGV,> 20
17,KLTCLASKCWLF,> 100
18,KLTELASY[Orn]WLF (not fully specified; printed as KLT-Glu-LASY-Orn-WLF) [KLT-Glu-LASY-Orn-WLF],< 0.5
19,KLTCLGSYCWLF,> 1

row,Binder,"EC50 [µM], FXa generation assay [µM]"
1,{(PEG)27-(PEG)27}-KLTCLASYCWLF (cysteine pairing not given here) [(PEG)27(PEG)27-KLTCLASYCWLF],> 1
2,QLTCLASECGLS,> 20
3,KLTCLASYCWL[NMeF] (cysteine pairing not given here) [KLTCLASYCWL-MePhe],> 1
4,NPTCQASYCQLF,> 20
5,Ac-KLTCLASYCWLF (not fully specified; cysteine pairing not given here) [Ac-KLTCLASYCWLF],> 1
6,{(PEG)27}-KLTCLASYCWLF (cysteine pairing not given here) [(PEG)27-KLTCLASYCWLF],> 1
7,KLTKLASYEWLF [KLT-Lys-LASY-Glu-WLF],< 0.5
8,KLTCLATYCWLF,> 1
9,NLTGRASYGWLP,> 20
10,AQTRVARCCQLF,> 20
11,KLKCLSSECQLL,> 20
12,KLTCLASYC,> 1
13,KLTELASY[Dab]WLF (not fully specified; printed as KLT-Glu-LASY-Dab-WLF) [KLT-Glu-LASY-Dab-WLF],> 1
14,KLTCLSSYCWLF,> 1
15,KLSCQAGQCWVF,> 1
16,KLTCLASYCWYF,< 0.5
17,KLTCQASYCWLF,> 1
18,XLTCLASYCWLF (not fully specified; Orn 1) [Orn-LTCLASYCWLF],< 0.5
19,KLTCLASYCWLF-OH (disulfide 4-9 (inferred)) [KLTCLASYCWLF-COOH],> 1

row,Binder,"EC50 [µM], FXa generation assay [µM]"
1,KLTCLXSYCWLF (not fully specified; Dpr 6) [KLTCL-Dpr-SYCWLF],> 1
2,B4,< 0.5
3,KLTCLKSYCWLF,> 1
4,KLTCLASYCWLK,> 100
5,KLTCLASYCWXF (not fully specified; Nle 11) [KLTCLASYCW-Nle-F],< 0.5
6,KLTCKASYCWLF,> 1
7,QLTCLASYCWLF,> 20
8,B5,> 1
9,TLTCRASYCQLF,> 1
10,KLTCLXSYCWLF (not fully specified; Abu 6) [KLTCL-Abu-SYCWLF],> 1
11,KLTCRASYCQLF,> 1
12,KLTCLASYCWLF (Lys(Me)2 1) [Lys(Me)2-LTCLASYCWLF],> 1
13,KKTCVASFCQMI,> 5
14,KLTCLASYCQLV,< 0.5
15,KLTCLASQCWLF,< 0.5
16,QQTCQASQCQLF,> 20
17,KLTXLASYCWLF (not fully specified; Pen 4) [KLT-Pen-LASYCWLF],> 20
18,KLTALASYAWLF,> 5.8
19,KLTELASY[Dap]WLF (not fully specified; printed as KLT-Glu-LASY-Dap-WLF) [KLT-Glu-LASY-Dap-WLF],< 0.5
